What was measured:
[1] = molecular target: p75 on vascular smooth muscle cell line (p75Ts-Tag-SMC); assay: cell-based or functional assay
TrkA on 293 cells = assay: whole-cell competition against 1 nM 125I-NGF on 293 cells expressing only trk A
Procedure: (§1) FIG. 8: Binding analysis of mature and cleavage-resistant pro-NGF to TrkA or p75^NTR receptors. […] Competition analysis of equilibrium binding was performed using a whole-cell assay. Cells were incubated with 1 nM radioiodinated NGF in the presence or absence of unlabeled mature NGF or unlabeled proNGF from 0.005 to 7 nM concentration for 1 hour at […] Nonspecific binding measured in parallel incubation with 500-fold excess mature NGF was less than 10% of total binding; all results were corrected for this non-specific binding. Each point represents the mean±standard deviation of quadruplicate determinations. Squares, commercial mature NGF; open circles, cleavage resistant pro-NGF.
(§2) The cleavage resistant proform of NGF binds with higher affinity than the cleaved mature form of NGF to the p75 receptor. Competition binding assays were performed to determine the affinity of interaction of the uncleaved proform to p75 or to trk A. Commercially purchased, predominantly mature NGF (Enzo Products for Science, Farmingdale, N.Y.) was radiolabeled and incubated with cells expressing only p75, in the presence or absence of increasing concentrations of either unlabeled cleaved NGF, or of unlabeled cleavage resistant pro-NGF. […] Thus, the cleavage resistant pro-NGF proform binds less effectively to trk A.

p75NTR on A875 cells [2] = molecular target: T1, p75NTR on A875 cells (UniProt P08138 29-427); assay: ratio of IC50s, whole-cell competition against 125I-NGF on cells expressing only p75
T1 construct: whole, on cells; also called p75 receptor; cells expressing only p75
T1 sequence (looked up): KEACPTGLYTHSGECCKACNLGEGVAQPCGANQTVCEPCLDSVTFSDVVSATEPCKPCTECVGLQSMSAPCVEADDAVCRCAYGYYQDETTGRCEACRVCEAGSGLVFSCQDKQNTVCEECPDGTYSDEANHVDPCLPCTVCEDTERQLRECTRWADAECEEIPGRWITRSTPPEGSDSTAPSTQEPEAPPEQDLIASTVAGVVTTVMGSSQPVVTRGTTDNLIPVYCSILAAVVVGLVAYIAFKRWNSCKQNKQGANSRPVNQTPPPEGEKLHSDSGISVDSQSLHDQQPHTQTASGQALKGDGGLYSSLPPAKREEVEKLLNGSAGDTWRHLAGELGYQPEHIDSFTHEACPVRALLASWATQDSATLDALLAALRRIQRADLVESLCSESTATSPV
Procedure: as §1, §2

p75NTR on A875 cells [3] = molecular target: T1, p75NTR on A875 cells; assay: whole-cell competition against 1 nM 125I-NGF on cells expressing only p75 (A875 cells)
Procedure: as §1, §2

Chain of TrkA on 293 cells (chain, as listed by the source): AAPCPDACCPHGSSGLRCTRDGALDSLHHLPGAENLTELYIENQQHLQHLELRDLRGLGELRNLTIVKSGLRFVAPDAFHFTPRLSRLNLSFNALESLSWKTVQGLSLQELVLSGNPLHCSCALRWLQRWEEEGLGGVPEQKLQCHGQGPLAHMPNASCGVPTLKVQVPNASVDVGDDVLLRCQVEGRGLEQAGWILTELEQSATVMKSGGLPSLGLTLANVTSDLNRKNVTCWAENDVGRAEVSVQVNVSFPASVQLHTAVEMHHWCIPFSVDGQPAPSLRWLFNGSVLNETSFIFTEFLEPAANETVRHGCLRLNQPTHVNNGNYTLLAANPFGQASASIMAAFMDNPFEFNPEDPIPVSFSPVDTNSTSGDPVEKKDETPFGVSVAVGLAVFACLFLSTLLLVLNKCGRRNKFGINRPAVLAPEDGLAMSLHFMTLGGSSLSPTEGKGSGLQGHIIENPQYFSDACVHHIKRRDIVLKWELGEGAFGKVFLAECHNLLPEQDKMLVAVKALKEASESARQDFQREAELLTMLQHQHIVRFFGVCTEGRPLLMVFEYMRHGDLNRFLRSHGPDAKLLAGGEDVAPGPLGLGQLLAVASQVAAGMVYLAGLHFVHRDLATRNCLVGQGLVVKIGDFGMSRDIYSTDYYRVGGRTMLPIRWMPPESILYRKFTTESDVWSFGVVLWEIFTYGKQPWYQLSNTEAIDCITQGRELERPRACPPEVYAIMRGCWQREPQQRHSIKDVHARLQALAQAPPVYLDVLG

induction of apoptosis relative to mature NGF [1]: ~10 fold
IC50 (TrkA on 293 cells): > 5 nM
times as effective in binding p75 as cleaved NGF (p75NTR on A875 cells [2]): ~5 fold
IC50 (p75NTR on A875 cells [3]): 0.2 nM
B1: His-tagged cleavage resistant pro-NGF (point mutant, K-R cleavage site at 120,121 mutated to A-A) (ligand)
chain: EPYTDSNVPEGDSVPEAHWTKLQHSLDTALRRARSAPTAPIAARVTGQTRNITVDPRLFKKRRLHSPRVLFSTQPPPTSSDTLDLDFQAHGTIPFNRTHRSAASSTHPVFHMGEFSVCDSVSVWVGDKTTATDIKGKEVTVLAEVNINNSVFRQYFFETKCRASNPVESGCRGIDSKHWNSYCTTTHTFVKALTTDEKQAAWRFIRIDTACVCVLSRKATRRG
notes: also called cleavage resistant proform of NGF; uncleaved proform; not shown: His tag at the carboxy-terminus
